{
  "source": "patent US20220323583A1",
  "about": "“Pharmaceutical Formulations of Bi-Specific Diabodies and Use of the Same” (MacroGenics, Inc., priority 2019, published 2022)",
  "binders": {"B1": {"name": "DART-A, sequence-optimized CD123×CD3 bispecific diabody (bispecific antibody)", "chain 1": "QAVVTQEPSLTVSPGGTVTLTCRSSTGAVTTSNYANWVQQKPGQAPRGLIGGTNKRAPWTPARFSGSLLGGKAALTITGAQAEDEADYYCALWYSNLWVFGGGTKLTVLGGGGSGGGGEVQLVQSGAELKKPGASVKVSCKASGYTFTDYYMKWVRQAPGQGLEWIGDIIPSNGATFYNQKFKGRVTITVDKSTSTAYMELSSLRSEDTAVYYCARSHLLRASWFAYWGQGTLVTVSSGGCGGGEVAALEKEVAALEKEVAALEKEVAALEK", "chain 2": "DFVMTQSPDSLAVSLGERVTMSCKSSQSLLNSGNQKNYLTWYQQKPGQPPKLLIYWASTRESGVPDRFSGSGSGTDFTLTISSLQAEDVAVYYCQNDYSYPYTFGQGTKLEIKGGGSGGGGEVQLVESGGGLVQPGGSLRLSCAASGFTFSTYAMNWVRQAPGKGLEWVGRIRSKYNNYATYYADSVKDRFTISRDDSKNSLYLQMNSLKTEDTAVYYCVRHGNFGNSYVSWFAYWGQGTLVTVSSGGCGGGKVAALKEKVAALKEKVAALKEKVAALKE"}},
  "key": {"[1]": {"molecular_target": "Human CD3ε/δ (human) (UniProt P07766)", "sequence (P07766 23-126, stated change not applied, chain 1 of 2)": "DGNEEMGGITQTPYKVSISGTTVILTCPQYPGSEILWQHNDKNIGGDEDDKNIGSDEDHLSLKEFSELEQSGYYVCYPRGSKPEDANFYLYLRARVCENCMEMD", "sequence (P04234 22-105, stated change not applied, chain 2 of 2, further chain)": "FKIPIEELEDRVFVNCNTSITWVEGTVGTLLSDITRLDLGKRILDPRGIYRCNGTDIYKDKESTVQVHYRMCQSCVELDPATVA", "assay": "kinetic binding measurement, method not stated"}, "[2]": {"molecular_target": "Cynomolgus CD3ε/δ (cynomolgus monkey) (UniProt Q95LI5)", "assay": "kinetic binding measurement, method not stated"}},
  "data": [
    {"binder": "B1", "values": [
      {"measurement": "Kd", "setting": "[1]", "result": 9, "unit": "nM"},
      {"measurement": "koff", "setting": "[1]", "result": 0.005, "unit": "s⁻¹"},
      {"measurement": "kon", "setting": "[1]", "result": 570000, "unit": "M⁻¹ s⁻¹"},
      {"measurement": "Kd", "setting": "[2]", "result": 9.2, "unit": "nM"},
      {"measurement": "koff", "setting": "[2]", "result": 0.005, "unit": "s⁻¹"},
      {"measurement": "kon", "setting": "[2]", "result": 550000, "unit": "M⁻¹ s⁻¹"}
    ]}
  ]
}
